The target of the assay is CRY1(Human)-3×FLAG (human) (UniProt Q16526). In words: co-IP.
Sequence of UniProt Q16526 (Q16526 whole entry): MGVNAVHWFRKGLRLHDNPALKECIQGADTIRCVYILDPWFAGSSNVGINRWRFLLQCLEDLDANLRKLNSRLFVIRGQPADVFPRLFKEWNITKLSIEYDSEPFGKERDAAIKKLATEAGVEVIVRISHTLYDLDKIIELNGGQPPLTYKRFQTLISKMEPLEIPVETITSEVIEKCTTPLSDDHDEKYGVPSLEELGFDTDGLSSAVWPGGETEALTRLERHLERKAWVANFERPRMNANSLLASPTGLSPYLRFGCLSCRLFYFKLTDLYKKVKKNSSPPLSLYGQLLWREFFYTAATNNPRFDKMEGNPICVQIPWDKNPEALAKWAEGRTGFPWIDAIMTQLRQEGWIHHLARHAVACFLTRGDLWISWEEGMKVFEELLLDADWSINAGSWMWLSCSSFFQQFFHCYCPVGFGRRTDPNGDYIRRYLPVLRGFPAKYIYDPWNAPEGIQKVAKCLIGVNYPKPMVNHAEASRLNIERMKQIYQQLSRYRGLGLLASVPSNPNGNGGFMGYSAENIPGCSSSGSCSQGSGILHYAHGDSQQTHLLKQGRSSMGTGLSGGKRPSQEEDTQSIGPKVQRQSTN

Consider PER2(Loris)-3×HA (natural protein), for which the ability to bind with CRY in co-IP (quantity and unit not named) turned out to be 35.2.

These data come from article PMC9546566.
